{
  "source": "paper PMC5394796",
  "about": "(Journal of molecular biology, 2016)",
  "molecular_target": "the molecule itself",
  "experiment": "disulfide-linked dimer fraction in lipid vesicles by SDS-PAGE",
  "data": [
    {"protein": "SSPGTPASPCSLSGIIIGVTVAAVVLIVAVFVSKSLLWKK", "note": "[DR5-L TM peptide (synthetic 40-residue DR5-L transmembrane domain)]", "values": [
      {"measurement": "stoichiometry N", "result": 2}
    ]}
  ]
}
